# Assays:
# Assay in all cases: cell-based or functional assay
# ER-KRAB (mouse; human) = ER-KRAB (mouse; human) (UniProt P19785)
# ER-VP64 (mouse) = ER-VP64 (mouse) (UniProt P19785)
# Cf2-PBD-VP64 (human) = Cf2-PBD-VP64 (human) (UniProt P06401)
# Chain of Cf2-PBD-VP64 (human) (P06401 640-914): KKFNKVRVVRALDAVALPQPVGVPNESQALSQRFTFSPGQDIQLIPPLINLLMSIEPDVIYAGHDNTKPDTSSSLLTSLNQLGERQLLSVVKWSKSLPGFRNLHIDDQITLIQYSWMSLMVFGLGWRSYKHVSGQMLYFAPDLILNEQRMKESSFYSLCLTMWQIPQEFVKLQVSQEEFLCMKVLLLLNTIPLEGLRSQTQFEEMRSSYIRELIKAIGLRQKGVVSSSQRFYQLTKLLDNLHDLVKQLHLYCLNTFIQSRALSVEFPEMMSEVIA
# Chain of ER-KRAB (mouse; human) (P19785 other isoform, or with tags, fused parts or gaps): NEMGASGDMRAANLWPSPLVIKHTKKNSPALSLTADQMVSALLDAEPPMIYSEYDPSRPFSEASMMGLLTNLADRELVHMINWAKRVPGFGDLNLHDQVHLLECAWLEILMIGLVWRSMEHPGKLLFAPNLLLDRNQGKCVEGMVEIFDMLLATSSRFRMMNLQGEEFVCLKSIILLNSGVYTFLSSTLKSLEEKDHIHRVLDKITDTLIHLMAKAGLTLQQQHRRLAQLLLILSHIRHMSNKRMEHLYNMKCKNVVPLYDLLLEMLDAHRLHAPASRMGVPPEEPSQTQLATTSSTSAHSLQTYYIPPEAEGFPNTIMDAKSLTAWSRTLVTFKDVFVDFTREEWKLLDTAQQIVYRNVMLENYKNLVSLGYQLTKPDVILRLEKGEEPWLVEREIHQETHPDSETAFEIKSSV
# Chain of C7-PBD-VP64 (P06401 640-914): as the sequence (P06401 640-914) above
Substance,"luciferase assay, tamoxifen-dependent repression of the erbB-2 promoter (ER-KRAB (mouse; human))","luciferase assay, erbB-2 promoter activity in HeLa cells, with and without Tamoxifen (ER-VP64 (mouse))","luciferase assay, tamoxifen-dependent activation of the erbB-2 promoter (ER-VP64 (mouse))","luciferase assay, C7-Cf2 TATA reporter, ligand-dependent change in transcription (Cf2-PBD-VP64 (human))"
E2C-ER (from UniProt P19785 282-599),2.9 fold,3 fold,5.3 fold,
C7-PBD-VP64 (from UniProt P06401 640-914),,,,2 fold

# Reference: patent US20030186841A1
